Molecular target: FLAG-tagged RHOA (UniProt P61586)
Experiment: co-IP

UniProt P61586, sequence (P61586 whole entry): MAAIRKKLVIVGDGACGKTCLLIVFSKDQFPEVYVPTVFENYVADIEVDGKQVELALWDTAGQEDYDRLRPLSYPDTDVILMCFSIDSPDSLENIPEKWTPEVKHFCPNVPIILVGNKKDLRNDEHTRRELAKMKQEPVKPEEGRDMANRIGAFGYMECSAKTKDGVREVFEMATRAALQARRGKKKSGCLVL

Work on “DAAM1-ΔDAD without microexon (-MIC) (domain or fragment)” yielded a decrease of the co-IP signal against the +MIC construct of 40%.
